Experiment [1] has as its target human TNF-α (Homo sapiens, UniProt P01375). Kind of experiment: ELISA analysis of purified scFv of adalimumab. The class given is binding. The settings on record: compared with Expi-293F-produced scFv of adalimumab. How it is done:
The expression plasmid was then transformed into Pichia pastoris by electroporation. To screen for high yield clones, ELISA was performed to measure the expression levels of scFv of adalimumab. Out of 480 transformants, five were selected for further protein induction and examination by SDS-PAGE. The clone scFv_1-A2 was selected for subsequent large-scale fermentation.
The high-yield clone scFv_1-A2 was inoculated in 100 mL of buffered glycerol-complex medium (BMGY, containing 1% yeast extract, 2% peptone, 100 mM K3PO4, 1.34 YNB, 0.4 mg/L biotin and 1% glycerol, pH 6.0) and cultured at 30° C., 200 rpm for 24 hours. On the next day, the culture was changed to a fermentation condition maintaining at 30° C., 30% of dissolved oxygen and pH 6.0. After being fermented for 24 hours, nitrogen source (YE, peptone) and methanol (0.5%, v/v) was added to induce protein expression. The culture supernatant was harvested for protein purification.
For orientation: An ELISA detects its analyte on a solid surface through an enzyme-linked reagent.

The target of experiment [2] is T1, CD20 (Homo sapiens, UniProt P11836).
T1 sequence (P11836 1-297): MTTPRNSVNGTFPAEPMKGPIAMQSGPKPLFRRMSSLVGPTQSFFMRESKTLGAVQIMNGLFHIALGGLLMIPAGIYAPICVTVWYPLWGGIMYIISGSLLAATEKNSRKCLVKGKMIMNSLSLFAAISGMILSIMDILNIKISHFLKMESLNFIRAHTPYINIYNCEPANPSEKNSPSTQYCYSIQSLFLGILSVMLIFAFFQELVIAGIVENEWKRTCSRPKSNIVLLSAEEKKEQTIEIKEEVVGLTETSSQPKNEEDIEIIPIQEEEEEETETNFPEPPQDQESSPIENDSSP
The experiment can be described thus: Apoptosis by anti-CD20 Fab in a 4-arm PEG linker. The settings on record: PEG arm of about 1,000-1,200 daltons (about 25-30 ethylene glycol units). The class given is cell-based.

The record followed here is patent US10010626B2, “Molecular constructs with targeting and effector moieties” (Immunwork Inc., priority 2015, dated 2018).

Chain of human TNF-α (P01375 77-233 limits assumed): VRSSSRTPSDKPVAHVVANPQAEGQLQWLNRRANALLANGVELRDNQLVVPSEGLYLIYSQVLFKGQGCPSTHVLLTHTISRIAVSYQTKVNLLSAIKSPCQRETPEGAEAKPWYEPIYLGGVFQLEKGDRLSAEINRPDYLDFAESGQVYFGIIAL

With “yeast-produced scFv of adalimumab: scFv of adalimumab produced by Pichia pastoris clone scFv_1-A2”, the “binding to human TNF-α (ELISA)” value in experiment [1] is on record as “bound to human TNF-α equally well as Expi-293F-produced scFv of adalimumab”.
As for “anti-CD20 (rituximab) Fab in a 4-arm PEG linker: anti-CD20 (rituximab) Fab in a 4-arm PEG linker, PEG arm of about 1,000-1,200 daltons”, the causing apoptosis result in experiment [2] is “effective in causing apoptosis”.
